Here are results for one molecule from article PMC11790920 (Nature Communications, 2025).

The target of this assay is T1, eukaryotic translation elongation factor 1A (eEF1A), native, full length (S. cerevisiae, UniProt P02994 1-458).
T1 sequence (looked up): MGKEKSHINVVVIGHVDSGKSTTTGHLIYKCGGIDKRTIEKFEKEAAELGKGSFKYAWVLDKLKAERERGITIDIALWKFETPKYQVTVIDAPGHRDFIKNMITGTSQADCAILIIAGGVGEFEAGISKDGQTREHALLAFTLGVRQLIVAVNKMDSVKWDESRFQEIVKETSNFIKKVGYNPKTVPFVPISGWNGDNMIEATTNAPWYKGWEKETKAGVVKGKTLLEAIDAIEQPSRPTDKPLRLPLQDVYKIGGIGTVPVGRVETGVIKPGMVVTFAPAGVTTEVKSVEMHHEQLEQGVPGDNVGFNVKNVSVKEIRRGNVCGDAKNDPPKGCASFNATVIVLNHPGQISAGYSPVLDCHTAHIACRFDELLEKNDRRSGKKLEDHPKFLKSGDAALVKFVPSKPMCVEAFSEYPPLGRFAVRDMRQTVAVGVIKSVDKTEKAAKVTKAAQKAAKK
The experiment in a line: pull-down.

B1: recombinant Ypl225w-3xFLAG (natural protein, S. cerevisiae, UniProt Q08971 1-146, looked up)
chain: MSTFNAETADNLEDIEKQFAVVAVEQAETYWKLLTSVPGSKLRLTKFDDEIYENFMERFPEYKDVERVKKFTEEELKTKEAKERWRKFFTIFEKKIEDYNFGTLLRTDASAEYGQFTTCFVVRLQFYAFEIARNKHGLNDWIVGQK
For the molecule B1, the binding result is “binds”.
